Experimental data as given in paper PMC4932183.

Columns and labels:
[1] = target: T1, pro-domain of activin A, N-terminal His6-tagged, released from engineered pro-activin A by HRV 3C protease (human); test: BLI; His6-tagged pro-activin A complex immobilised through the pro-domain on anti-penta-HIS biosensors, dipped into blank buffer for 600 s; dissociation of the mature domain; 30 °C
T1 sequence (P08476 whole entry, looked up): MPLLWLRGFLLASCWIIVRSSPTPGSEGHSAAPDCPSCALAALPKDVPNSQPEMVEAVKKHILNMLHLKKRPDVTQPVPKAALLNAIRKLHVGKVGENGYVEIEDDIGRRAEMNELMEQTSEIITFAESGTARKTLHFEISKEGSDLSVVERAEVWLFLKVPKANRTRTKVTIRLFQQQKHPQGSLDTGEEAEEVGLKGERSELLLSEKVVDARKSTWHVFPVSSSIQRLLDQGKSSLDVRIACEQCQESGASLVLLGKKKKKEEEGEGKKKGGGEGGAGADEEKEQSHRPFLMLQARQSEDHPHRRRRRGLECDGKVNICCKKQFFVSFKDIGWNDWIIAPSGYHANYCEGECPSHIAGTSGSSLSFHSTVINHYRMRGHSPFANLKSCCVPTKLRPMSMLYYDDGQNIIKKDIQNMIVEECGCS

[2] = target: T1, pro-domain of activin A, N-terminal His6-tagged, released from engineered pro-activin A by HRV 3C protease (human); test: BLI; reverse phase purified His6-tagged pro-domain immobilised at 25 μg/ml on anti-penta-HIS biosensors; mature activin A in solution; 300 s association, 300 s dissociation; Octet RED96, 30 °C
[3] = target: T1, pro-domain of activin A, N-terminal His6-tagged, released from engineered pro-activin A by HRV 3C protease (human); test: BLI; His6-tagged pro-activin A complex immobilised through the pro-domain on anti-penta-HIS biosensors, dipped into buffer containing 100 nM FST-288 for 600 s; dissociation of the mature domain; 30 °C
[4] = target: T1, pro-domain of activin A, N-terminal His6-tagged, released from engineered pro-activin A by HRV 3C protease (human); test: BLI; pro-activin A complex immobilised at 50 μg/ml on anti-penta-HIS biosensors, mature domain removed with 16 μM FST-288, then mature activin A in solution; 600 s association, 600 s dissociation; 30 °C

koff [1]: 0.00299 s⁻¹
Kd [2]: 5 nM
dissociation rate with 100 nM FST-288 [3]: 0.00445 s⁻¹
Kd [4]: 2.3 nM
B1: mature activin A (disulfide-linked dimer of the mature domain of inhibin βA) (ligand)
chain: GLECDGKVNICCKKQFFVSFKDIGWNDWIIAPSGYHANYCEGECPSHIAGTSGSSLSFHSTVINHYRMRGHSPFANLKSCCVPTKLRPMSMLYYDDGQNIIKKDIQNMIVEECGCS
